The experiment addresses Trypanosoma cruzi uridine phosphorylase (Trypanosoma cruzi). Nature of the experiment: SEC. In general terms: SEC sorts molecules by how far they enter the pores of the column.

Turning to “Trypanosoma cruzi uridine phosphorylase (enzyme)”, the stoichiometry N (usually the number of molecules, sites or subunits per partner or assembly) worked out at 2.

The record behind these values is publication PMC3124080.
